Results taken from the supplement of paper PMC7125110.
± gives the standard error. This sample holds only a part of the variants without activity.

B1: glmS ribozyme (parent)
chain: AUAAAAGCGCCAGAACUACAGAAAUGUAGUUGACGAGGAGGAGGUUUAUCGAAUUUUCGGCGGAUGCCUCCAAA

Variants of: B1
Experiment: self-cleavage kobs at 10000 uM GlcN6P; higher = faster cleavage; RNA array
Settings: with glucosamine-6-phosphate
In short: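 Tiles bearing barcoded ribozyme variants, transcribed in situ by E. coli RNA polymerase on sequenced MiSeq chips, were imaged over ~14 h at 37 °C using a hybridised Cy3 probe. Glucosamine-6-phosphate was supplied at 40 μM to 10 mM in HEPES/KCl/Mg(OAc)2 buffer. kobs came from one- or two-exponential decay fits to normalised per-tile medians, and weighted Michaelis–Menten fits then provided kcat and KM.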

Variant	self-cleavage kobs at 10000 uM GlcN6P
G13A A39G C67U	0.000112 ± 2.2e-05 s⁻¹
A33U G40C U56A G60C C71U	< 1e-05 s⁻¹
A14G A39G G44C C68U	3.6e-05 ± 1.5e-05 s⁻¹
U31C G41A G66A	0.00018 ± 2.8e-05 s⁻¹
A33C A39G U69G	< 1e-05 s⁻¹
U45G G59A	7.24e-05 ± 1.4e-05 s⁻¹
A12G A42C U69A	0.000102 ± 1.5e-05 s⁻¹
A6U U47G C50A	< 1e-05 s⁻¹
A48U G59U A64G	< 1e-05 s⁻¹
A15G U49G G60A	< 1e-05 s⁻¹
A6C A48U U54A C67U	< 1e-05 s⁻¹
U57A G60A C61A	< 1e-05 s⁻¹
U30C G40A U56A G62C	< 1e-05 s⁻¹
C8U U31C A52U	< 1e-05 s⁻¹
U30C G32C G40A	6.96e-05 ± 1.4e-05 s⁻¹
G32A U45G U47A	0.000614 ± 0.00014 s⁻¹
A33G A48C	< 1e-05 s⁻¹
C8G C61G C70A	< 1e-05 s⁻¹
G7A G35U U57A	< 1e-05 s⁻¹
G41A C61A C68G	< 1e-05 s⁻¹
G7U G51A U56G	< 1e-05 s⁻¹

Variant	self-cleavage kobs at 10000 uM GlcN6P
A14C G44C A52C U65A	< 1e-05 s⁻¹
U30A A42G U46A	0.000409 ± 9.1e-05 s⁻¹
G32A U69G C71A	4.49e-05 ± 1.6e-05 s⁻¹
G32A A52G C70U	0.000145 ± 1.9e-05 s⁻¹
G7U A12G G35A A39G U49A C67A	< 1e-05 s⁻¹
A6G A12G G40U U47C	< 1e-05 s⁻¹
A12U G43U U46A	4.1e-05 ± 1.8e-05 s⁻¹
G9U A36G G43U U55G C68U	< 1e-05 s⁻¹
U30G G35A G40C C68G	< 1e-05 s⁻¹
G40C A53G G66C	0.000137 ± 2.8e-05 s⁻¹
A14C G40U U56G	0.00853 ± 0.0032 s⁻¹
U30C U54G C67G	2.88e-05 ± 1.3e-05 s⁻¹
G13U A39G G63C	< 1e-05 s⁻¹
C50G U54C C71U	4.14e-05 ± 1.5e-05 s⁻¹
U31C U57C	5.52e-05 ± 1.3e-05 s⁻¹
C16G C50A U56C U69G	< 1e-05 s⁻¹
C16A U31A C71G	4.01e-05 ± 1.1e-05 s⁻¹
U49G C61G	< 1e-05 s⁻¹
G43A U55G U57A U65G	< 1e-05 s⁻¹
A33G G37C C50G C68A	0.00162 ± 0.00046 s⁻¹
A12U A42U C70U	0.00014 ± 3.1e-05 s⁻¹

Variant	self-cleavage kobs at 10000 uM GlcN6P
A33U U47A	9.99e-05 ± 1.7e-05 s⁻¹
A33U G35C C71G	< 1e-05 s⁻¹
G40A U65G C71U	0.0033 ± 0.00061 s⁻¹
A36C G38U A39C G62U	< 1e-05 s⁻¹
G13C A36G G51A U55A	< 1e-05 s⁻¹
U31A U47G A48G	3.62e-05 ± 1.3e-05 s⁻¹
A14C U54G C70A	7.96e-05 ± 1.8e-05 s⁻¹
G9U A12G C16A	< 1e-05 s⁻¹
A15C G44A A53G	5.76e-05 ± 1.5e-05 s⁻¹
G7C U49A C50U A53U U54C C68U	< 1e-05 s⁻¹
G38U A39C G44A	< 1e-05 s⁻¹
A53G U57G C67G C68A	< 1e-05 s⁻¹
U56C A64C U65A	< 1e-05 s⁻¹
C11G A36C G37C U46G G60A	< 1e-05 s⁻¹
U30C A36U G44U C67G	< 1e-05 s⁻¹
G7A A33G C50A U69A C70U	9.88e-05 ± 1.8e-05 s⁻¹
G35C G51U C58U C61G A64G U65A	< 1e-05 s⁻¹
A33G C50U C58G C71U	< 1e-05 s⁻¹
U46G C61G G63A	< 1e-05 s⁻¹
U46G C68U C71U	8.22e-05 ± 1.3e-05 s⁻¹
G21U A52G	0.00145 ± 0.0003 s⁻¹

Variant	self-cleavage kobs at 10000 uM GlcN6P
U31A G43C C68U	0.000192 ± 5.2e-05 s⁻¹
C8G C34U G43U G62U C71U	< 1e-05 s⁻¹
C8G A15G G37C U49G	< 1e-05 s⁻¹
C11U G38U C50A	< 1e-05 s⁻¹
A14G C34G G44U A52C C58A G59A G63U C71G	< 1e-05 s⁻¹
A6C G32C G41C C58U U65A	< 1e-05 s⁻¹
U57A A64G	0.000214 ± 4.6e-05 s⁻¹
G32U G43U U69C	< 1e-05 s⁻¹
G9A A15G G35A A42U C70U	< 1e-05 s⁻¹
U49C C50U U56C	< 1e-05 s⁻¹
U47C A53U C68G	3.22e-05 ± 1.4e-05 s⁻¹
G29C G32U C70A	0.000104 ± 2.2e-05 s⁻¹
G9C G32C C71U	< 1e-05 s⁻¹
A14U G40A U54A	0.000245 ± 8.4e-05 s⁻¹
C16G U46G C67U	0.000334 ± 6.9e-05 s⁻¹
G43C U49C	< 1e-05 s⁻¹
G32U U57A	6.86e-05 ± 8.1e-06 s⁻¹
C11G G13U G37C	< 1e-05 s⁻¹
U45G U57G	3.68e-05 ± 9e-06 s⁻¹
G7A C34U U57A	< 1e-05 s⁻¹
C50U G60U C61A	< 1e-05 s⁻¹
